Source: the supplement of paper PMC9112550, “Optimization of the antimicrobial peptide Bac7 by deep mutational scanning” (BMC Biology, 2022)

These sequences were tested on Escherichia coli TOP10 (assay: shrunken log2 fold change of peptide-encoding DNA abundance (4.5 h post-induction vs induction); higher = less antimicrobial activity (less host growth inhibition)). Conditions: time post-induction: 4.5 h; library: site-saturation at positions 5, 18, 19, 20.
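Also: peptides expressed intracellularly from a pBAD plasmid library in pooled LB shake-flask culture, induced with 0.3% L-arabinose, DNA abundance read by NGS, three biological replicates, DESeq2 with apeglm shrinkage.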

Question: For RRIRDRPPRLPRPRPRPIHLPRP, which “shrunken log2 fold change” value is on record?
Answer: -0.0597

Question: With RRIRDRPPRLPRPRPRPIIHPRP as the sequence, how does the “shrunken log2 fold change” value read?
Answer: -0.483

Question: RRIRDRPPRLPRPRPRPIIRPRP was tested. Which “shrunken log2 fold change” value did it give?
Answer: -0.0604

Question: How did the “shrunken log2 fold change” value turn out when RRIRDRPPRLPRPRPRPIKYPRP was run?
Answer: -0.206

Question: For RRIRDRPPRLPRPRPRPILAPRP, which “shrunken log2 fold change” value is on record?
Answer: 0.115

Question: Which “shrunken log2 fold change” value does the source give for RRIRDRPPRLPRPRPRPILDPRP here?
Answer: 0.0609

Question: For RRIRDRPPRLPRPRPRPILWPRP, which “shrunken log2 fold change” value is on record?
Answer: 0.00705

Question: RRIRDRPPRLPRPRPRPIMWPRP was tested. Which “shrunken log2 fold change” value did it give?
Answer: -0.00999

Question: For RRIRDRPPRLPRPRPRPINTPRP, which “shrunken log2 fold change” value is on record?
Answer: -0.115

Question: RRIRDRPPRLPRPRPRPIPWPRP was tested. Which “shrunken log2 fold change” value did it give?
Answer: 0.077

Question: Which “shrunken log2 fold change” value does the source give for RRIRDRPPRLPRPRPRPIRGPRP here?
Answer: -0.0417

Question: For RRIRDRPPRLPRPRPRPIRKPRP, which “shrunken log2 fold change” value is on record?
Answer: 0.0201

Question: How did the “shrunken log2 fold change” value turn out when RRIRDRPPRLPRPRPRPIRMPRP was run?
Answer: -0.0588

Question: Which “shrunken log2 fold change” value does the source give for RRIRDRPPRLPRPRPRPISEPRP here?
Answer: -0.0429

Question: For RRIRDRPPRLPRPRPRPISRPRP, which “shrunken log2 fold change” value is on record?
Answer: -0.032

Question: RRIRDRPPRLPRPRPRPISSPRP was tested. Which “shrunken log2 fold change” value did it give?
Answer: 0.00884

Question: Which “shrunken log2 fold change” value does the source give for RRIRDRPPRLPRPRPRPKAAPRP here?
Answer: 0.0214

Question: Which “shrunken log2 fold change” value does the source give for RRIRDRPPRLPRPRPRPKAHPRP here?
Answer: 0.0408

Question: How did the “shrunken log2 fold change” value turn out when RRIRDRPPRLPRPRPRPKDNPRP was run?
Answer: -0.116

Question: Which “shrunken log2 fold change” value does the source give for RRIRDRPPRLPRPRPRPKFEPRP here?
Answer: -0.0187

Question: RRIRDRPPRLPRPRPRPKFHPRP was tested. Which “shrunken log2 fold change” value did it give?
Answer: -0.362

Question: With RRIRDRPPRLPRPRPRPKFPPRP as the sequence, how does the “shrunken log2 fold change” value read?
Answer: -0.237

Question: With RRIRDRPPRLPRPRPRPKGNPRP as the sequence, how does the “shrunken log2 fold change” value read?
Answer: 0.0802

Question: With RRIRDRPPRLPRPRPRPKGWPRP as the sequence, how does the “shrunken log2 fold change” value read?
Answer: 0.589

Question: With RRIRDRPPRLPRPRPRPKHIPRP as the sequence, how does the “shrunken log2 fold change” value read?
Answer: -0.236

Question: How did the “shrunken log2 fold change” value turn out when RRIRDRPPRLPRPRPRPKHMPRP was run?
Answer: -0.192

Question: How did the “shrunken log2 fold change” value turn out when RRIRDRPPRLPRPRPRPKIMPRP was run?
Answer: 0.199

Question: With RRIRDRPPRLPRPRPRPKITPRP as the sequence, how does the “shrunken log2 fold change” value read?
Answer: -0.375

Question: For RRIRDRPPRLPRPRPRPKIYPRP, which “shrunken log2 fold change” value is on record?
Answer: -0.684

Question: RRIRDRPPRLPRPRPRPKLHPRP was tested. Which “shrunken log2 fold change” value did it give?
Answer: 0.464

Question: RRIRDRPPRLPRPRPRPKLRPRP was tested. Which “shrunken log2 fold change” value did it give?
Answer: -0.0184

Question: Which “shrunken log2 fold change” value does the source give for RRIRDRPPRLPRPRPRPKMLPRP here?
Answer: 0.11

Question: Which “shrunken log2 fold change” value does the source give for RRIRDRPPRLPRPRPRPKMRPRP here?
Answer: -0.013

Question: For RRIRDRPPRLPRPRPRPKNHPRP, which “shrunken log2 fold change” value is on record?
Answer: -0.195

Question: With RRIRDRPPRLPRPRPRPKNMPRP as the sequence, how does the “shrunken log2 fold change” value read?
Answer: -0.482

Question: For RRIRDRPPRLPRPRPRPKNPPRP, which “shrunken log2 fold change” value is on record?
Answer: -0.128

Question: For RRIRDRPPRLPRPRPRPKRHPRP, which “shrunken log2 fold change” value is on record?
Answer: 0.214

Question: RRIRDRPPRLPRPRPRPKRKPRP was tested. Which “shrunken log2 fold change” value did it give?
Answer: 0.0894

Question: Which “shrunken log2 fold change” value does the source give for RRIRDRPPRLPRPRPRPKRLPRP here?
Answer: -0.0451

Question: Which “shrunken log2 fold change” value does the source give for RRIRDRPPRLPRPRPRPKRQPRP here?
Answer: -0.0603

Question: RRIRDRPPRLPRPRPRPKWCPRP was tested. Which “shrunken log2 fold change” value did it give?
Answer: 0.135

Question: With RRIRDRPPRLPRPRPRPKWGPRP as the sequence, how does the “shrunken log2 fold change” value read?
Answer: 0.105

Question: With RRIRDRPPRLPRPRPRPKWKPRP as the sequence, how does the “shrunken log2 fold change” value read?
Answer: -0.00871

Question: How did the “shrunken log2 fold change” value turn out when RRIRDRPPRLPRPRPRPKYNPRP was run?
Answer: -0.813

Question: For RRIRDRPPRLPRPRPRPKYPPRP, which “shrunken log2 fold change” value is on record?
Answer: 0.0118

Question: For RRIRDRPPRLPRPRPRPKYTPRP, which “shrunken log2 fold change” value is on record?
Answer: -0.214

Question: With RRIRDRPPRLPRPRPRPLADPRP as the sequence, how does the “shrunken log2 fold change” value read?
Answer: 0.0597

Question: RRIRDRPPRLPRPRPRPLAFPRP was tested. Which “shrunken log2 fold change” value did it give?
Answer: 0.334

Question: With RRIRDRPPRLPRPRPRPLASPRP as the sequence, how does the “shrunken log2 fold change” value read?
Answer: 0.171

Question: For RRIRDRPPRLPRPRPRPLCWPRP, which “shrunken log2 fold change” value is on record?
Answer: 0.824

Question: Which “shrunken log2 fold change” value does the source give for RRIRDRPPRLPRPRPRPLECPRP here?
Answer: 0.0215

Question: For RRIRDRPPRLPRPRPRPLEEPRP, which “shrunken log2 fold change” value is on record?
Answer: 0.0347

Question: For RRIRDRPPRLPRPRPRPLFIPRP, which “shrunken log2 fold change” value is on record?
Answer: -0.184

Question: For RRIRDRPPRLPRPRPRPLFKPRP, which “shrunken log2 fold change” value is on record?
Answer: -0.221

Question: For RRIRDRPPRLPRPRPRPLHPPRP, which “shrunken log2 fold change” value is on record?
Answer: 0.286

Question: Which “shrunken log2 fold change” value does the source give for RRIRDRPPRLPRPRPRPLICPRP here?
Answer: 0.347

Question: How did the “shrunken log2 fold change” value turn out when RRIRDRPPRLPRPRPRPLKAPRP was run?
Answer: -0.214

Question: With RRIRDRPPRLPRPRPRPLKCPRP as the sequence, how does the “shrunken log2 fold change” value read?
Answer: 0.055

Question: RRIRDRPPRLPRPRPRPLLCPRP was tested. Which “shrunken log2 fold change” value did it give?
Answer: 0.503

Question: How did the “shrunken log2 fold change” value turn out when RRIRDRPPRLPRPRPRPLLFPRP was run?
Answer: 0.445

Question: Which “shrunken log2 fold change” value does the source give for RRIRDRPPRLPRPRPRPLMWPRP here?
Answer: 2.47

Question: With RRIRDRPPRLPRPRPRPLNCPRP as the sequence, how does the “shrunken log2 fold change” value read?
Answer: -0.0225

Question: With RRIRDRPPRLPRPRPRPLNKPRP as the sequence, how does the “shrunken log2 fold change” value read?
Answer: -0.295

Question: RRIRDRPPRLPRPRPRPLNTPRP was tested. Which “shrunken log2 fold change” value did it give?
Answer: -0.0995

Question: How did the “shrunken log2 fold change” value turn out when RRIRDRPPRLPRPRPRPLPHPRP was run?
Answer: -0.146

Question: With RRIRDRPPRLPRPRPRPLQMPRP as the sequence, how does the “shrunken log2 fold change” value read?
Answer: 0.167

Question: With RRIRDRPPRLPRPRPRPLQNPRP as the sequence, how does the “shrunken log2 fold change” value read?
Answer: 0.338

Question: Which “shrunken log2 fold change” value does the source give for RRIRDRPPRLPRPRPRPLQRPRP here?
Answer: -0.00347

Question: With RRIRDRPPRLPRPRPRPLQTPRP as the sequence, how does the “shrunken log2 fold change” value read?
Answer: 0.135

Question: RRIRDRPPRLPRPRPRPLQYPRP was tested. Which “shrunken log2 fold change” value did it give?
Answer: -0.373

Question: RRIRDRPPRLPRPRPRPLRAPRP was tested. Which “shrunken log2 fold change” value did it give?
Answer: 1.15

Question: How did the “shrunken log2 fold change” value turn out when RRIRDRPPRLPRPRPRPLRCPRP was run?
Answer: 0.177

Question: How did the “shrunken log2 fold change” value turn out when RRIRDRPPRLPRPRPRPLRHPRP was run?
Answer: 0.358

Question: For RRIRDRPPRLPRPRPRPLSLPRP, which “shrunken log2 fold change” value is on record?
Answer: 0.0554

Question: Which “shrunken log2 fold change” value does the source give for RRIRDRPPRLPRPRPRPLSNPRP here?
Answer: -0.247
